Starred links: 1 amine or outer side, 2 acyl side, 3 side chain; linkers in the order of their positions; H or OH if unused. Positions of bridges follow the written chain, without caps; N, C: chain ends. Non-standard residues stand in square brackets, D forms with d. Primed or numbered codes have the meaning given here. No end group written: not given here. *: point of attachment. E(PEG8Me) = (S)-30-amino-27-oxo-2,5,8,11,14,17,20,23-octaoxa-26-azahentriacontane-31-oic acid, COCCOCCOCCOCCOCCOCCOCCOCCNC(=O)CC[C@H](N[*:1])C(=O)[*:2]; Phe(4-OMe)(3) = (S)-2-amino-3-(4-methoxyphenyl)propanoic acid (source code F4OMe), COc1ccc(C[C@H](N[*:1])C(=O)[*:2])cc1; F4aao = (S)-2-amino-3-(4-(carboxymethoxy)phenyl)propanoic acid, O=C([C@H](Cc1ccc(OCC(=O)[*:3])cc1)N[*:1])[*:2]; Phe(4-OMe)″ = (S)-2-amino-3-(4-methoxyphenyl)propanoic acid (F4OMe), COc1ccc(C[C@H](N[*:1])C(=O)[*:2])cc1; Phe(4-OMe) = F4OMe = (S)-2-amino-3-(4-methoxyphenyl)propanoic acid, COc1ccc(C[C@H](N[*:1])C(=O)[*:2])cc1; Trp(1-CH2CO) = O=C([C@H](Cc1cn(CC(=O)[*:3])c2ccccc12)N[*:1])[*:2]; Phe(3-COOH) = N[C@@H](Cc1cccc(C(=O)O)c1)C(=O)O; Trp(7-aza) = N[C@@H](Cc1c[nH]c2ncccc12)C(=O)O; NH(CH2CH2O)8Me = COCCOCCOCCOCCOCCOCCOCCOCCN*; NMePhe(3-Cl) = CN[C@@H](Cc1cccc(Cl)c1)C(=O)O; 3Pal(6-NH2) = Nc1ccc(C[C@H](N)C(=O)O)cn1; NMe3Pal = CN[C@@H](Cc1cccnc1)C(=O)O; NMe4Pal = CN[C@@H](Cc1ccncc1)C(=O)O; NMeY = CN[C@@H](Cc1ccc(O)cc1)C(=O)O; 3Pal = N[C@@H](Cc1cccnc1)C(=O)O; 4Pal = N[C@@H](Cc1ccncc1)C(=O)O
Biological target: T1, human transferrin receptor (hTfR) (human, UniProt P02786 89-760)
T1 construct: used as 0.5 uM hTfR dimer solution, immobilised on an NTA sensor chip (Ni capture plus EDC/NHS coupling); also called human TfR; TfR1
T1 sequence (P02786 89-760 limits assumed): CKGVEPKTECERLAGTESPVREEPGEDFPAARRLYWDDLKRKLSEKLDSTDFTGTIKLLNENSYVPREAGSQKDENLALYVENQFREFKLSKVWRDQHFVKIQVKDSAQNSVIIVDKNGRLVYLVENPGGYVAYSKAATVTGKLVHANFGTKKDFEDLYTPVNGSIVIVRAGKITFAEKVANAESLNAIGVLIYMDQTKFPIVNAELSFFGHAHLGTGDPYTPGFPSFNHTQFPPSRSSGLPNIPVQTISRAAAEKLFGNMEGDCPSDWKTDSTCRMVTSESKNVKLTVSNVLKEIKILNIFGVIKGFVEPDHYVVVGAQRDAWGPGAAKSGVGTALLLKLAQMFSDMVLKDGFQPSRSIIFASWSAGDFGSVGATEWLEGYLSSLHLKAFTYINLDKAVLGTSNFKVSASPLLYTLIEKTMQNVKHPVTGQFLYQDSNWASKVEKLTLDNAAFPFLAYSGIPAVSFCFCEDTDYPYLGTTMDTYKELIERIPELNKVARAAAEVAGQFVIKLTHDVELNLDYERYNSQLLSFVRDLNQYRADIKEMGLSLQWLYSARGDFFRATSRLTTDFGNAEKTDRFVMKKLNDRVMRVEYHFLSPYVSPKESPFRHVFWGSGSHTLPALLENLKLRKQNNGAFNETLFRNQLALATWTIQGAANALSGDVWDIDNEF
Assay: SPR; B = KD 1-100 nM
Description: NTA sensor chip (Global Life Sciences Technologies Japan K.K.) was inserted into BiacoreT200 (Global Life Sciences Technologies Japan K.K.), then the priming operation was performed three times by using running buffer containing: 10 mM HEPES pH 8.0 (Nacalai Tesque, Inc.), 150 mM NaCl (Nacalai Tesque, Inc.), 0.05% Tween 20 (Nacalai Tesque, Inc.), 0.1% BSA (SIGMA-ALDRICH) and 1.0% DMSO (FUJIFILM Wako Pure Chemical Corporation), and equilibrated at a flow rate of 30 μL/min. 350 mM EDTA solution was reacted at a flow rate of 10 μL/min for 60 seconds, 0.5 mM […] solution (Kishida Chemical Co., Ltd.) was reacted at a flow rate of 10 μL/min for 60 seconds, and then the NTA sensor chip was washed with 3 mM EDTA solution (Nacalai Tesque, Inc.) at a flow rate of 10 μL/min for 60 seconds. After mixing 50 μL each of 60 mM EDC solution (Global Life Science Technologies Japan K.K.) and 650 mM NHS solution (Global Life Science Technologies Japan K.K.), the reaction was carried out at a flow rate of 10 μL/min for 420 seconds. 150 μL of 0.5 μM hTfR dimer solution was prepared by dilution with running buffer and reacted at a flow rate of 10 μL/min for 300 seconds to immobilize hTfR on the NTA sensor chip. For the human transferrin receptor (hTfR), recombinant hTfR described in Example 2 of WO2018/124121 was used. After immobilization, capping was performed by reacting with 1.0 M ethanolamine solution (Global Life Sciences Technologies Japan K.K.) at a flow rate of 10 μL/min for 420 seconds. Peptide lysate prepared in DMSO solution to 10 mM was diluted with running buffer to be a final concentration of 10 μM peptide lysate, then peptide solutions of 100 nM, 50 nM, 25 nM, 10 nM, and 5 nM were prepared. Using the above samples, the kinetics of the peptide against hTfR was obtained by SPR measurement.
The kinetic evaluation model was single-cycle kinetics, and curve fitting was performed using Biacore T200 Evaluation Software Version 3.0 (Global Life Science Technologies Japan K.K.). The binding of the peptide to hTfR was evaluated by performing curve fitting on the obtained sensorgram by least squares method and obtaining the KD value.

| Binder | KD |
| --- | --- |
| {CH2CO}-AV[NMe3Pal]VWNY[Phe(4-OMe)″]IIRR[4Pal][NMeY]C-NH2 (thioether N-15; also: linker PEG4c) [894_0316] | 1 to 100 nM |
| Ac-AV[NMePhe(3-Cl)]V[Trp(1-CH2CO)]N[3Pal(6-NH2)][Phe(4-OMe)(3)]IIRR[Phe(3-COOH)][NMeY]C (thioether (positions not given here); not fully specified (C-terminus, bridges)) [894_0339] | 1 to 100 nM |
| Ac-AV[NMe4Pal]VWN[3Pal(6-NH2)][Phe(4-OMe)(3)]IIRRF[NMeY]C (thioether (positions not given here); not fully specified (C-terminus, bridges)) [894_0323] | 1 to 100 nM |
| Ac-AV[NMePhe(3-Cl)]V[Trp(1-CH2CO)]NY[Phe(4-OMe)(3)]IIR[E(PEG8Me)]F[NMeY]C (thioether (positions not given here); not fully specified (C-terminus, bridges)) [894_0334] | 1 to 100 nM |
| Ac-AV[NMePhe(3-Cl)]V[Trp(1-CH2CO)]NY[3Pal]IIRR[Phe(3-COOH)][NMeY]C (thioether (positions not given here); not fully specified (C-terminus, bridges)) [894_0341] | 1 to 100 nM |
| Ac-AV[NMePhe(3-Cl)]V[Trp(1-CH2CO)]NY[Phe(4-OMe)(3)]IIR[E(PEG8Me)][Phe(3-COOH)][NMeY]C (thioether (positions not given here); not fully specified (C-terminus, bridges)) [894_0344] | 1 to 100 nM |
| Ac-AV[NMePhe(3-Cl)]V[Trp(1-CH2CO)]NY[3Pal]IIR[E(PEG8Me)]F[NMeY]C (thioether (positions not given here); not fully specified (C-terminus, bridges)) [894_0340] | 1 to 100 nM |
| Ac-AV[NMePhe(3-Cl)]V[Trp(1-CH2CO)]N[3Pal(6-NH2)][3Pal]IIRR[Phe(3-COOH)][NMeY]C (thioether (positions not given here); not fully specified (C-terminus, bridges)) [894_0347] | 1 to 100 nM |
| Ac-AV[NMePhe(3-Cl)]V[Trp(1-CH2CO)]NY[Phe(4-OMe)(3)]IIR[E(PEG8Me)][4Pal][NMeY]C (thioether (positions not given here); not fully specified (C-terminus, bridges)) [894_0345] | 1 to 100 nM |
| Ac-AV[NMe3Pal]VWN[3Pal(6-NH2)][Phe(4-OMe)(3)]IIRRF[NMeY]C (thioether (positions not given here); not fully specified (C-terminus, bridges)) [894_0322] | 1 to 100 nM |
| Ac-AV[NMePhe(3-Cl)]V[Trp(1-CH2CO)]N[3Pal(6-NH2)][F4aao]IIRRF[NMeY]C (thioether (positions not given here); not fully specified (C-terminus, bridges)) [894_0337] | 1 to 100 nM |
| {CH2CO}-AV[NMePhe(3-Cl)]VWNY[4Pal]IIRRF[NMeY]C-NH2 (thioether N-15; also: linker PEG4c) [894_0319] | 1 to 100 nM |
| Ac-AV[NMePhe(3-Cl)]V[Trp(7-aza)]NY[Phe(4-OMe)(3)]IIRR[4Pal][NMeY]C (thioether (positions not given here); not fully specified (C-terminus, bridges)) [894_0324] | 1 to 100 nM |
| {CH2CO}-AV[NMePhe(3-Cl)]VWNY[3Pal]IIRRF[NMeY]C (thioether N-15; not fully specified (C-terminus)) [894_0318] | 1 to 100 nM |
| Ac-AV[NMePhe(3-Cl)]V[Trp(1-CH2CO)]NY[F4aao]IIRR[4Pal][NMeY]C (thioether (positions not given here); not fully specified (C-terminus, bridges)) [894_0343] | 1 to 100 nM |
| {CH2CO}-AV[NMePhe(3-Cl)]VWN[3Pal(6-NH2)][4Pal]IIRR[4Pal][NMeY]C-NH2 (thioether N-15; also: linker PEG4c) [894_0320] | 1 to 100 nM |
| Ac-AV[NMePhe(3-Cl)]VWNY[Phe(4-OMe)(3)]IIRR[4Pal][NMe3Pal]C (thioether (positions not given here); not fully specified (C-terminus, bridges)) [894_0325] | 1 to 100 nM |

Continued, values first:

| KD | Binder |
| --- | --- |
| 1 to 100 nM | {CH2CO}-AV[NMePhe(3-Cl)]VWNY[F4aao]IIRE(NH(CH2CH2O)8Me)F[NMeY]C (thioether N-15; not fully specified (C-terminus)) [894_0362] |
| 1 to 100 nM | {CH2CO}-AV[NMePhe(3-Cl)]VWN[3Pal(6-NH2)][F4aao]IIRR[Phe(3-COOH)][NMeY]C (thioether N-15; not fully specified (C-terminus)) [894_0368] |
| 1 to 100 nM | {CH2CO}-AV[NMePhe(3-Cl)]V[Trp(1-CH2CO)]NY[3Pal]IIRE(NH(CH2CH2O)8Me)[4Pal][NMeY]C-NH2 (thioether N-15; also: linker PEG4c) [894_0351] |
| 1 to 100 nM | Ac-AV[NMePhe(3-Cl)]V[Trp(1-CH2CO)]N[3Pal(6-NH2)][F4aao]IIRR[Phe(3-COOH)][NMeY]C (thioether (positions not given here); not fully specified (C-terminus, bridges)) [894_0349] |
| 1 to 100 nM | {CH2CO}-AV[NMePhe(3-Cl)]VWN[3Pal(6-NH2)][F4aao]IIRR[4Pal][NMeY]C-NH2 (thioether N-15; also: linker PEG4c) [894_0369] |
| 1 to 100 nM | {CH2CO}-AV[NMePhe(3-Cl)]V[Trp(1-CH2CO)]NY[3Pal]IIRE(NH(CH2CH2O)8Me)[Phe(3-COOH)][NMeY]C-NH2 (thioether N-15; also: linker PEG4c) [894_0352] |
| 1 to 100 nM | Ac-AV[NMePhe(3-Cl)]V[Trp(1-CH2CO)]N[3Pal(6-NH2)][F4aao]IIRR[4Pal][NMeY]C (thioether (positions not given here); not fully specified (C-terminus, bridges)) [894_0348] |
| 1 to 100 nM | Ac-AV[NMePhe(3-Cl)]V[Trp(1-CH2CO)]NY[F4aao]IIRE(NH(CH2CH2O)8Me)[4Pal][NMeY]C (thioether (positions not given here); not fully specified (C-terminus, bridges)) [894_0350] |
| 1 to 100 nM | {CH2CO}-AV[NMePhe(3-Cl)]VWNY[3Pal]IIRE(NH(CH2CH2O)8Me)[Phe(3-COOH)][NMeY]C-NH2 (thioether N-15; also: linker PEG4c) [894_0370] |
| 1 to 100 nM | {CH2CO}-AV[NMePhe(3-Cl)]VWNY[Phe(4-OMe)]IIRE(NH(CH2CH2O)8Me)[Phe(3-COOH)][NMeY]C-NH2 (thioether N-15; also: linker PEG4c) [894_0365] |

— US20260116920A1 (PEPTIDREAM, published 2026)
